One assay has as its target T1, Kif7-DM (1-543aa) (human, UniProt Q2M1P5 1-543).
T1 construct: As used for cryo-EM, without GFP; Expressed with a TEV-cleavable N-terminal 6xHis-SUMOstar tag; also called Kif7 dimer; dimeric Kif7
T1 sequence: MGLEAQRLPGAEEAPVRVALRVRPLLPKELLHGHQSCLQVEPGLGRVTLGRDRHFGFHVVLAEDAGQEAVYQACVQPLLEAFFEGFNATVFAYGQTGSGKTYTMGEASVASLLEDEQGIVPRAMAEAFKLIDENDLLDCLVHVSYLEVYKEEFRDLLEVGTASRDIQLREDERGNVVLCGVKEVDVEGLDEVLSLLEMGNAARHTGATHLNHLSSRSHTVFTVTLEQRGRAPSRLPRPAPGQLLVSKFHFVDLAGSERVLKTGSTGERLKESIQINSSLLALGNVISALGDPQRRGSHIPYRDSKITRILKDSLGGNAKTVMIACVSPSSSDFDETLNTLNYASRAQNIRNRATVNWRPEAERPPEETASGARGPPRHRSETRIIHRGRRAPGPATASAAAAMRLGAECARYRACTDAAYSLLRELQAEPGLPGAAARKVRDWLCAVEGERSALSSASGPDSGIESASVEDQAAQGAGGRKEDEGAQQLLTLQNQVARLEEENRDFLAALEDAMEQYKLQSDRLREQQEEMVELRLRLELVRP
Nature of the assay: cryo-EM of microtubule-bound Kif7-DM with AMP-PNP, 3.9 Å. Here is the method: For grid preparation, all Kif7-GIi2 preparations were diluted using BRB80 (80 mM 1,4-piperazinediethanesulfonic acid [PIPES], pH 6.8, 1 mM MgCl₂, 1 mM ethylene glycol tetraacetic acid [EGTA]). Porcine brain microtubules were prepared from frozen aliquots of 5 mg/ml tubulin (Cytoskeleton, Denver, CO) in polymerization buffer (BRB80; 80 mM PIPES, pH 6.8, 1 mM EGTA, 2 mM MgCl₂, 3 mM GMP-CPP, 10% dimethyl sulfoxide (DMSO)) at 37° C. for 2-3 hours. The polymerized microtubules were then incubated at room temperature for several hours or overnight before use. The following day or several hours later the microtubules were spun down on a bench top centrifuge 14.00 RPM 10 min to pellet. The pellet was resuspended in polymerization buffer without DMSO. The Kif7 dimer and monomer preparations were made by mixing the Kif7 with the GIi2 or GIi2-SNAP for 1 hour prior to incubation with the microtubules. Kif7-dimer (0.36 mg/ml) plus GIi2 (0.2 mg/ml) in BRB plus 2 mM ADP, 2 mM MgcI2, Kif7-monomer (0.45 mg/mL) or Kif7 dimer plus GIi2_SNAP (0.30 mg/mL) plus BRB80 with 1 mM AMPPNP and 1 mM MgCl₂. All microtubule samples were prepared on 1.2/1.3 400-mesh grids (Electron Microscopy Services) Grids were glow-discharged before sample application. The cryo-samples were prepared using a manual plunger, which was placed in a homemade humidity chamber that varied between 80 and 90% relative humidity. […]

A further assay concerns the target T2, Kif27-DM-GFP (1-580aa) (human, UniProt Q86VH2 1-580).
T2 construct: range 1-580; Called dimeric; not shown: GFP tag, C-terminal by the name
T2 sequence (looked up): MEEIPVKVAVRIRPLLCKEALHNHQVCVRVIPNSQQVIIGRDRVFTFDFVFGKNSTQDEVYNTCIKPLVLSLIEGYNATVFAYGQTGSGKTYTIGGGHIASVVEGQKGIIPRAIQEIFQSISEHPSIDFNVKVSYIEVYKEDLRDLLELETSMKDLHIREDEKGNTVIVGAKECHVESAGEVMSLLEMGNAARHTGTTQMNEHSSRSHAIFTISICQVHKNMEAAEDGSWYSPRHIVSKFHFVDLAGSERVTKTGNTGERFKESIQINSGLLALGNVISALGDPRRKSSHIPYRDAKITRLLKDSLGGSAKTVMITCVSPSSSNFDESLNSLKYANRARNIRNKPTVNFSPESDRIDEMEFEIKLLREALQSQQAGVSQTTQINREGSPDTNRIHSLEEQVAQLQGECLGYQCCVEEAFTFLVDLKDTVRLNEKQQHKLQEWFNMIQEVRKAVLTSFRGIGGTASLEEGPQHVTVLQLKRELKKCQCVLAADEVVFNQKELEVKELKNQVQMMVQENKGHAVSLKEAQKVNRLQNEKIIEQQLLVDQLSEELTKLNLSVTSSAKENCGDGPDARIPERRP
Nature of the assay: TIRF microscopy on microtubules; 100 nM Gli2-ZF-SNAP-Alexa647 with 100 nM kinesin.

A further assay deals with T3, FLAG-Kif7 (544-1343aa) (human, UniProt Q2M1P5 544-1343).
T3 construct: Expressed in Expi293F cells for the pull-down; also called C-terminal half of Kif7; not shown: FLAG tag from pCMV-BICEP-4 (MCS1), N-terminal by the name
T3 sequence: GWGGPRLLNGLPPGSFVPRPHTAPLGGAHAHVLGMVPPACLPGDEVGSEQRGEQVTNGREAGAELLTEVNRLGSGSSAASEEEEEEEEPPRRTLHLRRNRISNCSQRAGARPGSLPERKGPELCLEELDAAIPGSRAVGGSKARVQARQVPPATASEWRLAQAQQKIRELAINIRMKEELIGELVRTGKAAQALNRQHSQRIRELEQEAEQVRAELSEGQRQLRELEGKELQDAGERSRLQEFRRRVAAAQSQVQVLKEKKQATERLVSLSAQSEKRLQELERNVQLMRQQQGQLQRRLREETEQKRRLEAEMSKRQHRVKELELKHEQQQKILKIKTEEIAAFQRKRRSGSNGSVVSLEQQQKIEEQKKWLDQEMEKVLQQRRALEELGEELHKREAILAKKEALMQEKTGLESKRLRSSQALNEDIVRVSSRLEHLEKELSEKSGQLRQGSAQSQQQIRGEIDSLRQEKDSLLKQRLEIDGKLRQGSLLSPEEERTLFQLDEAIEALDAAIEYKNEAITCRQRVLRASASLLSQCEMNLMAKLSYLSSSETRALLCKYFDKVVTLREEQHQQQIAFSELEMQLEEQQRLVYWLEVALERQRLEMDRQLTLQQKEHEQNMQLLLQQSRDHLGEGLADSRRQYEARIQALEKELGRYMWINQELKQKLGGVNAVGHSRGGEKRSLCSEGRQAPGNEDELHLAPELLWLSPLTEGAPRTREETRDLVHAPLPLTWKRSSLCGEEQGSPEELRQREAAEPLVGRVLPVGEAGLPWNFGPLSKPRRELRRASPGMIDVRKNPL
Nature of the assay: pull-down on anti-FLAG beads, anti-c-myc blot, Expi293F cells. An excerpt: (§1) Immunoprecipitation (IP) using anti-FLAG magnetic beads. Input (cell lysate), FT (flow through), wash and beads samples were immunoblotted (IB) with anti c-Myc antibody to detect Gli2. […] The blots are representative images of a minimum of three repeats. Gli2-ZF mutants are as follows: ZF2-mut (H493A, R496A), ZF3-mut (H503A, R516A, K521A), ZF4-mut (R550A, K552A, R556A). Kif7-CC mutants are as follows: S1-mut (E500A, E501A, E502A, D505A), S2-mut (E511A, E515A), S3-mut1 (E526A, E529A) and S3-mut2 (E530A, R535A).
(§2) To narrow down the residues that participate in binding, we analyzed the model of the Kif7-SCC:Gli2-ZF complex using PDBsum server (De Beer et al., Nucleic acids research, 42, D292-D296, 2014). We performed alanine scanning mutagenesis of the charged residues on Gli2-ZF that came up as part of the binding interface in the PDBsum analysis and analyzed their binding with pull-down assay (FIG. 3D). […] We systematically mutated the residues to alanine and performed the pull-down assay with Gli2-ZF.

A further assay addresses T4, c-Myc-Gli2 (595-1568aa) (human, UniProt P10070 595-1568).
T4 construct: the end of the construct is meant as the C-terminus of the protein; also called C-terminal half of Gli2; not shown: c-myc tag from pCMV-BICEP-4 (MCS2), N-terminal by the name
T4 sequence (looked up): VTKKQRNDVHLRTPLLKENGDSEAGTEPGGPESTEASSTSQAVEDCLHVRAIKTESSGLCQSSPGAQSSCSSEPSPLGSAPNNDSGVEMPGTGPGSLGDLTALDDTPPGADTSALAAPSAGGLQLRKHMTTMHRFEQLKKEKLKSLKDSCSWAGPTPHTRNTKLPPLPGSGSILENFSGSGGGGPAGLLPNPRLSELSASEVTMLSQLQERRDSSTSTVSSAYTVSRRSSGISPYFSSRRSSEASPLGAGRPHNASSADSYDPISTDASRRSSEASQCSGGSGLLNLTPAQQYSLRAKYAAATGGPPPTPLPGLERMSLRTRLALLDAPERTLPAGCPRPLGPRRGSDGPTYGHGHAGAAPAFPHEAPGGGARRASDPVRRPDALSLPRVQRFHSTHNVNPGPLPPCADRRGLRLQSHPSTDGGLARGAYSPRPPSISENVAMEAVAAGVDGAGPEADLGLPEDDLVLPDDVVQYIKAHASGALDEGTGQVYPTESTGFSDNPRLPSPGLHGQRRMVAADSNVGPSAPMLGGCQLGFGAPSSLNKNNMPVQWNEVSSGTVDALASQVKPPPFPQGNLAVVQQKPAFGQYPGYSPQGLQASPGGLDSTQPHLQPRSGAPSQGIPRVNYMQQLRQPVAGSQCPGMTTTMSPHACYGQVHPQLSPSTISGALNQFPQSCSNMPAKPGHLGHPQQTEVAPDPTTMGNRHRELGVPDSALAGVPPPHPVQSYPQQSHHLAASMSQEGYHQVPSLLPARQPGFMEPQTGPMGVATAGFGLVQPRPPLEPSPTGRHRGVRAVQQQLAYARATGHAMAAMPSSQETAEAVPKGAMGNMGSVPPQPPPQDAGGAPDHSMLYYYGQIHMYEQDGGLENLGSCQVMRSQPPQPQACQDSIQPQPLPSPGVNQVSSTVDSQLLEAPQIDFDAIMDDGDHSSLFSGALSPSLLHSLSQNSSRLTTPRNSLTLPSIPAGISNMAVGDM
The assay is described as above.
Source text: as §1, §2

B1: Gli2-ZF-SNAP (other, human, UniProt P10070 418-604, looked up)
chain: KEDLDRDDCKQEAEVVIYETNCHWEDCTKEYDTQEQLVHHINNEHIHGEKKEFVCRWQACTREQKPFKAQYMLVVHMRRHTGEKPHKCTFEGCSKAYSRLENLKTHLRSHTGEKPYVCEHEGCNKAFSNASDRAKHQNRTHSNEKPYICKIPGCTKRYTDPSSLRKHVKTVHGPDAHVTKKQRNDVH
modifications: Alexa 647 dye on the SNAP tag in the TIRF assays
notes: Labeled with Alexa 647 for TIRF microscopy; used unlabeled (as far as told) for cryo-EM; also called Gli2-ZF-SNAP-Alexa 647; Gli2-ZF-Alexa 647; not shown: C-terminal SNAP tag
Turning to B1, the binding result in the assay with Kif7-DM (1-543aa) is “binds”; with Kif27-DM-GFP (1-580aa), “no binding”.

B2: c-Myc-Gli2 (1-594aa) (other, human, UniProt P10070 1-594, looked up)
chain: METSASATASEKQEAKSGILEAAGFPDPGKKASPLVVAAAAAAAVAAQGVPQHLLPPFHAPLPIDMRHQEGRYHYEPHSVHGVHGPPALSGSPVISDISLIRLSPHPAGPGESPFNAPHPYVNPHMEHYLRSVHSSPTLSMISAARGLSPADVAQEHLKERGLFGLPAPGTTPSDYYHQMTLVAGHPAPYGDLLMQSGGAASAPHLHDYLNPVDVSRFSSPRVTPRLSRKRALSISPLSDASLDLQRMIRTSPNSLVAYINNSRSSSAASGSYGHLSAGALSPAFTFPHPINPVAYQQILSQQRGLGSAFGHTPPLIQPSPTFLAQQPMALTSINATPTQLSSSSNCLSDTNQNKQSSESAVSSTVNPVAIHKRSKVKTEPEGLRPASPLALTQGQVSGHGSCGCALPLSQEQLADLKEDLDRDDCKQEAEVVIYETNCHWEDCTKEYDTQEQLVHHINNEHIHGEKKEFVCRWQACTREQKPFKAQYMLVVHMRRHTGEKPHKCTFEGCSKAYSRLENLKTHLRSHTGEKPYVCEHEGCNKAFSNASDRAKHQNRTHSNEKPYICKIPGCTKRYTDPSSLRKHVKTVHGPDAH
notes: Expressed in Expi293F cells for the pull-down; also called N-terminal half of Gli2; not shown: c-myc tag from pCMV-BICEP-4 (MCS2), N-terminal by the name
For the molecule B2, in the assay with FLAG-Kif7 (544-1343aa), the binding result is on record as “no binding”.

B3: FLAG-Kif7 (1-543aa) (other)
chain: T1 sequence
notes: Expressed in Expi293F cells for the pull-down; also called N-terminal half of Kif7; Kif7-DM; not shown: FLAG tag from pCMV-BICEP-4 (MCS1), N-terminal by the name
As to B3, the binding result with c-Myc-Gli2 (595-1568aa) is reported as “no binding”.

The values are drawn from patent US20230374088A1 (GENERAL HOSPITAL, published 2023).
